From PMC10531723

Target: PrP-CFP (mouse PrP(23-231) fused to CFP) (mouse) (UniProt P04925)
Test: FRET or BRET

## PrP-YFP (mouse PrP(23-231) fused to YFP) (from UniProt P04925 23-231) (domain or fragment)
  FRET efficiency: 31%
